Experimental data from article PMC7407834 (2020).
Ends that are not written are not given here.

Legend:
phage clone 1 peptide = target: T1, phage clone 1 peptide (phage-displayed); test: ELISA
T1 chain: GHIPTCLTPMCR

USPIO-LRPep2 = target: T2, USPIO-LRPep2 (not fully specified (N-terminus, bridges); cysteine pairing not given here; also: grafted to USPIO nanoparticle); test: ELISA
T2 chain: HPWCCGLRLDLR

B1: LDLR 22-788 (protein)
chain: not shown
Kd (phage clone 1 peptide): 0.136 nM | Kd (USPIO-LRPep2): 72.5 nM
